From the RNAGym collection of RNA variant scans (doi:10.7554/elife.80360) come the findings set out here.

B1: CPEB3 Ribozyme (parent)
chain: GGGGGCCACAGCAGAAGCGUUCACGUCGCGGCCCCUGUCAGAUUCUGGUGAAUCUGCGAAUUCUGCUGU

Variants of B1 are the subject of the data set. The data set is described as follows: self-cleavage, relative activity (ratio to wild type); higher = more cleavage; co-transcriptional.
For the variant G2A G48U, the self-cleavage is 0.215.

In the case of G2A G48A, the self-cleavage came to 0.213.

For the variant G2C A10G, the self-cleavage amounted to 0.0728.

For G2C A10U, the self-cleavage turned out to be 0.0719.

Turning to G2C A10C, the self-cleavage was found to be 0.0373.

Consider G2C G68C, for which the self-cleavage was found to be 0.114.

Turning to G2C G68A, the self-cleavage was 0.11.

As to G2C G3A, the self-cleavage came out at 0.055.

On to G2C G3C, for which the self-cleavage is 0.0247.

Turning to G2C C33U, the self-cleavage stood at 0.0465.

As to G2C C33G, the self-cleavage amounted to 0.0592.

Regarding G2C C33A, the self-cleavage came to 0.0155.

As to G2U U36A, the self-cleavage stood at 0.023.

In the case of G2U U36C, the self-cleavage worked out at 0.0828.

Consider G2C U26A, for which the self-cleavage came to 0.0328.

Regarding G2C U26G, the self-cleavage was found to be 0.0511.

With G2C U26C, the self-cleavage stood at 0.0734.

With G2C C39U, the self-cleavage turned out to be 0.0154.

In the case of G2C A42G, the self-cleavage was 0.0702.

As to G2A G31A, the self-cleavage came out at 0.0613.

As for G2U A52C, the self-cleavage amounted to 0.0652.

For the variant G2U G5U, the self-cleavage stood at 0.0421.

For G2C C34A, the self-cleavage turned out to be 0.0678.

In the case of G2C C34U, the self-cleavage amounted to 0.0646.

With G2U A42C, the self-cleavage worked out at 0.0887.

With G2U A42G, the self-cleavage stood at 0.0791.

Turning to G2U A42U, the self-cleavage was 0.0798.

On to G2A U36G, for which the self-cleavage turned out to be 0.209.

G2A U36C: the self-cleavage came to 0.129.

G2A U36A: the self-cleavage came out at 0.0357.

Consider G2U G41A, for which the self-cleavage was 0.0653.

Take G2C U62A: the self-cleavage was found to be 0.0592.

Turning to G2C U62G, the self-cleavage was 0.0405.

Regarding G2C C54A, the self-cleavage worked out at 0.0299.

With G2C C54U, the self-cleavage was found to be 0.0485.

For G2C C57U, the self-cleavage was determined as 0.054.

Regarding G2C C57A, the self-cleavage turned out to be 0.036.

Take G2C C57G: the self-cleavage turned out to be 0.0289.

For the variant G2C A8C, the self-cleavage was found to be 0.039.

Consider G2C A8U, for which the self-cleavage was 0.0675.

For the variant G2A G19A, the self-cleavage was 0.0283.

For G2A G19U, the self-cleavage is 0.0445.

For the variant G2U G28A, the self-cleavage is 0.0437.

With G2U G28C, the self-cleavage came to 0.0331.

On to G2A U26C, for which the self-cleavage worked out at 0.114.

With G2A U26A, the self-cleavage is 0.11.

With G2A U26G, the self-cleavage was 0.0691.

On to G2A U43G, for which the self-cleavage was found to be 0.144.

For G2A U43A, the self-cleavage came out at 0.139.

In the case of G2A U43C, the self-cleavage was found to be 0.123.

On to G2C A23C, for which the self-cleavage came to 0.0568.

For the variant G2C U21A, the self-cleavage came out at 0.0234.

With G2C U21G, the self-cleavage worked out at 0.0813.

In the case of G2C C24A, the self-cleavage amounted to 0.0707.

Take G2C C24G: the self-cleavage was determined as 0.0232.

Regarding G2A U21A, the self-cleavage came out at 0.114.

As to G2A U21G, the self-cleavage amounted to 0.0545.

Turning to G2A U21C, the self-cleavage worked out at 0.0698.

For the variant G2U C9G, the self-cleavage was determined as 0.129.

Turning to G2U C9A, the self-cleavage came to 0.149.

For G2C G50U, the self-cleavage is 0.0262.

On to G2C G50C, for which the self-cleavage came out at 0.0266.

Turning to G2C G48C, the self-cleavage was 0.0429.

For the variant G2C G48U, the self-cleavage was determined as 0.105.

As for G2U A23C, the self-cleavage was found to be 0.0692.

In the case of G2U A23U, the self-cleavage worked out at 0.133.

Take G2U C45U: the self-cleavage came out at 0.102.

As for G2U C45G, the self-cleavage amounted to 0.0316.

Take G2U C45A: the self-cleavage worked out at 0.0935.

G2C U55G: the self-cleavage is 0.0548.

For the variant G2C U55C, the self-cleavage amounted to 0.0587.

For G2C A52C, the self-cleavage was 0.0825.

On to G2U A51G, for which the self-cleavage amounted to 0.127.

With G2U A51U, the self-cleavage was found to be 0.0841.

Take G2C U69A: the self-cleavage amounted to 0.111.

For the variant G2C U69C, the self-cleavage was 0.147.

Turning to G2U U21A, the self-cleavage came to 0.0838.

In the case of G2U U21G, the self-cleavage was determined as 0.0462.

On to G2U C12A, for which the self-cleavage came out at 0.0547.

Consider G2U C12G, for which the self-cleavage was 0.0633.

As for G2U C12U, the self-cleavage stood at 0.13.

Turning to G2A U20G, the self-cleavage was 0.0568.

Turning to G2U G3A, the self-cleavage came out at 0.0298.

G2U G3C: the self-cleavage was found to be 0.0704.

Regarding G2A U61C, the self-cleavage turned out to be 0.0999.

Consider G2A G68C, for which the self-cleavage worked out at 0.335.

Regarding G2A G68A, the self-cleavage was 0.445.

On to G2C G28A, for which the self-cleavage came out at 0.0369.

On to G2C G28U, for which the self-cleavage was 0.0543.

In the case of G2C G28C, the self-cleavage came out at 0.0457.

Take G2A G37A: the self-cleavage worked out at 0.0498.

For G2A G37U, the self-cleavage was 0.0408.

As to G2A G37C, the self-cleavage was found to be 0.0177.

Take G2U G17A: the self-cleavage was determined as 0.0534.

G2C G30A: the self-cleavage came to 0.0388.

With G2C G30U, the self-cleavage turned out to be 0.0301.

Turning to G2U U20C, the self-cleavage amounted to 0.0329.

Take G2U U20G: the self-cleavage was 0.0171.

Regarding G2A U69G, the self-cleavage stood at 0.335.

On to G2A U69A, for which the self-cleavage worked out at 0.256.

Turning to G2U G56C, the self-cleavage came out at 0.0334.

Turning to G2U G56A, the self-cleavage turned out to be 0.0814.

Regarding G2U G56U, the self-cleavage was determined as 0.0789.

Regarding G2U U26G, the self-cleavage was found to be 0.0848.

Turning to G2U C27G, the self-cleavage came out at 0.0366.

For the variant G2U C27U, the self-cleavage was 0.0348.

In the case of G2C C12U, the self-cleavage stood at 0.065.

In the case of G2C C12G, the self-cleavage was 0.0599.

Take G2U U38G: the self-cleavage worked out at 0.0441.

On to G2C U61C, for which the self-cleavage is 0.048.

As to G2C U61G, the self-cleavage came to 0.0289.

With G2C U61A, the self-cleavage turned out to be 0.0082.

In the case of G2C G5A, the self-cleavage turned out to be 0.0455.

For G2U C22G, the self-cleavage was found to be 0.039.

As to G2U C22U, the self-cleavage is 0.039.

On to G2U C22A, for which the self-cleavage worked out at 0.0323.

Turning to G2C C32U, the self-cleavage was determined as 0.0415.

As for G2C C32A, the self-cleavage was 0.00762.

Take G2C C32G: the self-cleavage came out at 0.0507.

For the variant G2U C33G, the self-cleavage is 0.066.

In the case of G2U C33A, the self-cleavage came out at 0.0922.

Take G2U C33U: the self-cleavage amounted to 0.117.

For the variant G2U C32U, the self-cleavage came to 0.113.

Take G2U C32G: the self-cleavage came out at 0.0483.

As for G2U G25U, the self-cleavage came out at 0.0175.

For G2U G25A, the self-cleavage worked out at 0.0393.

Consider G2U G25C, for which the self-cleavage turned out to be 0.0157.

G2U G48U: the self-cleavage turned out to be 0.0675.

On to G2U G48A, for which the self-cleavage came to 0.0985.

As to G2U G4U, the self-cleavage came to 0.0539.

In the case of G2U G4C, the self-cleavage was 0.0426.

On to G2A U64G, for which the self-cleavage amounted to 0.0844.

As for G2A U64C, the self-cleavage turned out to be 0.0804.

In the case of G2A U64A, the self-cleavage stood at 0.115.

As for G2U A16U, the self-cleavage worked out at 0.0525.

For the variant G2C C63G, the self-cleavage was 0.0678.

With G2C U38C, the self-cleavage amounted to 0.0174.

G2C U38G: the self-cleavage came out at 0.0453.

As to G2A G28A, the self-cleavage came to 0.0492.

On to G2A G28U, for which the self-cleavage was determined as 0.0733.

In the case of G2C U46A, the self-cleavage amounted to 0.0309.

In the case of G2C U46C, the self-cleavage is 0.0336.

Regarding G2C U46G, the self-cleavage was determined as 0.0683.

Consider G2A U67G, for which the self-cleavage amounted to 0.167.

In the case of G2A U67C, the self-cleavage was 0.242.

On to G2A U67A, for which the self-cleavage came out at 0.281.

With G2U G65C, the self-cleavage came out at 0.0564.

Turning to G2U G65U, the self-cleavage was determined as 0.0743.

As for G2C U67C, the self-cleavage was found to be 0.106.

Turning to G2C U67A, the self-cleavage was 0.0227.

With G2C U67G, the self-cleavage amounted to 0.0872.

Take G2C G19C: the self-cleavage amounted to 0.0249.

Take G2C G19U: the self-cleavage was determined as 0.0175.

In the case of G2U C7A, the self-cleavage stood at 0.0706.

On to G2U C7U, for which the self-cleavage was found to be 0.0578.

Turning to G2U C7G, the self-cleavage is 0.0573.

Regarding G2C A59C, the self-cleavage was 0.027.

In the case of G2C A59U, the self-cleavage came out at 0.0322.

Take G2U C39U: the self-cleavage was 0.0814.

For the variant G2U C39A, the self-cleavage was 0.0535.

Regarding G2U C39G, the self-cleavage was found to be 0.045.

Take G2C A51C: the self-cleavage was found to be 0.0374.

As for G2C A51G, the self-cleavage was found to be 0.0786.

G2C U53G: the self-cleavage is 0.0245.

Consider G2U C18G, for which the self-cleavage worked out at 0.00659.

As to G2U C34A, the self-cleavage turned out to be 0.0756.

As to G2U C34G, the self-cleavage was 0.0441.
